Assay results: patent publication US20250320284A1 (AC IMMUNE, published 2025)

T1: CARD domain of human ASC (human, UniProt Q9ULZ3 107-195)
T1 construct: biotinylated in BLI; also called hCARD; human CARD
T1 sequence: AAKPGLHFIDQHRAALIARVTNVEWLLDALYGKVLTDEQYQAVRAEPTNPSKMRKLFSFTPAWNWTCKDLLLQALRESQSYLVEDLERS

T2: mouse ASC (mouse, UniProt Q9EPB4 1-193)
T2 construct: recombinant mASC in ELISA and SPR; endogenous ASC of J774.A1 cells in Western blot and immunofluorescence; also called mASC
T2 sequence: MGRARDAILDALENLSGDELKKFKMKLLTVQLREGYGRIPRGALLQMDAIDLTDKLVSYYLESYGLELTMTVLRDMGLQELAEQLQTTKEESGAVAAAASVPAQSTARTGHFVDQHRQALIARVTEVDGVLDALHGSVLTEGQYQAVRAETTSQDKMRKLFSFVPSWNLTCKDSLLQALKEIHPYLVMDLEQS


Columns and labels:
[1] = target: T3, PYD domain of human ASC (human, UniProt Q9ULZ3 1-91, limits assumed); experiment: ELISA, coated hPYD;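 also: monoclonal antibody binding to plate-coated human ASC PYD measured by ELISA, with a phosphatase substrate absorbance read-out and EC50 from a variable slope curve fit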
T3 construct: biotinylated in BLI; His/MBP-tagged in the alanine ELISA; also called hPYD; human PYD

[2] = target: T1, CARD domain of human ASC; experiment: ELISA, coated hCARD
[3] = target: T2, mouse ASC; experiment: ELISA, coated mASC
[4] = target: T4, human ASC (apoptosis associated speck-like protein containing a caspase-recruitment domain) (human, UniProt Q9ULZ3 1-195); experiment: ELISA, coated hASC;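 also: antibody binding to plate-coated recombinant human ASC, read as phosphatase substrate absorbance, EC50 from four-parameter variable-slope fit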
T4 construct: recombinant hASC in ELISA and SPR; endogenous ASC (cytoplasmic or specks) in Western blot and immunofluorescence; also called hASC; PYCARD

[5] = target: T4, human ASC (apoptosis associated …); experiment: SPR, hASC immobilized, Fab in flow;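 also: hASC amine-coupled on a CM5 chip (about 500 RU), Fab analytes measured by single-cycle kinetics in PBS-P+ running buffer, glycine pH 1.7 regeneration between Fabs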

T4 sequence (Q9ULZ3 whole entry, the tested form may be a part): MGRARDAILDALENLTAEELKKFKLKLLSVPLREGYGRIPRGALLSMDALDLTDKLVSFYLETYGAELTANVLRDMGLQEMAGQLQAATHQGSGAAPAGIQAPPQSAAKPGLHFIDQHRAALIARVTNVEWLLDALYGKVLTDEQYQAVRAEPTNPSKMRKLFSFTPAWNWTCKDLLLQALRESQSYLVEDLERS
T3 sequence (Q9ULZ3 1-91 limits assumed): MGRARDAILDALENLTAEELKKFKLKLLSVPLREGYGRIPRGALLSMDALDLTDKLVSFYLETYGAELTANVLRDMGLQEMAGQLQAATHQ

Row | EC50 [3] [pM] | EC50 [4] [pM] | EC50 [2] [pM] | Kd [5] [pM] | koff [5] [s⁻¹] | kon [5] [M⁻¹ s⁻¹] | Binder | other results
1 | 630 | 110 | 120 |  |  |  | ACI-8016-11A3F3-AB1 (antibody, V domains shown, also called 936.11A3F3) VH: QVQLQQSGAELARPGTSVKLSCKASGYTFISFGLSWVKQRTGQGLEWIGEIYPRIDNPYYNEKFKGKAILTADKSSSTAYMELRSLTSEDSAVYFCARYFTKGNYFDYWGQGTTLTVSS VL: DIQMTQSPASLAASVGETVTITCRASENIYYSLAWYQQKQGKSPQVLIYYANSLEDGVPSRFSGSGSGTQYSLKINSMQPEDTATYFCKQAYDVPFTFGTGTKLELK | binding result [1]: no binding
2 | 2670 | 1980 | 2210 |  |  |  | ACI-8016-2614C3B2-AB1 (antibody, V domains shown) VH: QVQLQQSDAELVKPGASVKISCKVSGYALTDHSIHWMKQRPEQGLAWIGYMYPGDGSANYNDKFKGKATLTADISSSTAYMQLNSLTSEDSAVYFCTRPYYFGSSYDYFGYWGQGTTLTVSS VL: DIQMNQSPSSLSASLGDTITITCHASQNINVWLSWYQQKPGNVPKLLIYKASKLHTGVSSNFSGSGSGTGFTLTISSLQPEDIGTYYCQQGQSYPYTFGGGTKLEIK | 
3 |  | 140 |  |  |  |  | ACI-8018-2221B7F1-AB1 (antibody, V domains shown) VH: EVQLVESGGGLVKPGGSLKLSCAASGFTFSDSYMYWLRQTPEKRLEWVASISDGGRYTYYSDSVKGRFTISRDNVKNNLYLQMTSLRSEDTAIYYCARGLDYWGQGTTLTVSS VL: DIKMTQSPSSMYASLGERVTITCKASQDINSYLSWFQQKPGKSPKTLIYRANRLVDGVPSRFSGSGSGQDYSLTISSLEYEDMGIYYCLQYAESTWTFGGGTKLEIK | binding result [3]: no binding
4 |  |  |  | 67 | 5.62e-06 | 84300 | hACI-8016-32B6C7-AB1_H7L4 Fab (Fab, V domains shown) VH: QVQLVQSGAEVKKPGSSVKVSCKISGYTFTDQTIHWVRQAPGQGLEWMGYIYPGDSSAMYNEKFQGRVTITADKSTSTAYMELSSLRSEDTAVYYCARPLYSYASYYWFAYWGQGTLVTVSS VL: EIVLTQSPATLSLSPGERATLSCHASQNINVYLSWYQQKPGQAPRLLIYKSSNLHTGIPARFSGSGSGTDFTLTISSLEPEDFAVYYCQQGQSYPLTFGQGTKLEIK | 
5 |  |  |  | 49 | 4.96e-06 | 101000 | hACI-8016-32B6C7-AB1_H14L3 Fab (Fab, V domains shown) VH: QVQLVQSGAEVKKPGSSVKVSCKASGYTFTDQTIHWVRQAPGQGLEWMGYIYPGDSSAMYNEKFQGRVTITADKSTSTAYMELSSLRSEDTAVYYCARPLYSYASYYWFAYWGQGTLVTVSS VL: EIVLTQSPATLSLSPGERATLSCHASQNINVWLSWYQQKPGQAPRLLIYKSSNLHTGIPARFSGSGSGTDFTLTISSLEPEDFAVYYCQQGQSYPLTFGQGTKLEIK | 
6 | 110 | 100 |  |  |  |  | ACI-8016-207E8B2-AB1 (antibody, V domains shown) VH: QVQLQQSGAELAKPGASVKLSCKASGYTFTSYWMHWVKQRPGQGLEWIGYINPSSGYTKCNQKFKDKATLTADKSSSTAYMQLSSLTYEDSAVYYCVFPFDYDGFDYWGQGTTLTVSS VL: DVLMTQTPLSLPVSLGDQASISCRSSQSIVHSNGNTYLEWYLQKPGQSPKLLIYKVSNRFSGVPDRFSGSGSGTVFTLKISRVEAEDLGVYYCFQDSHFPFTFGSGTKLEIK | EC50 [1]: 120 pM; binding result [2]: no binding
7 |  | 100 | 90 |  |  |  | ACI-8016-19E6D4-AB1 (antibody, V domains shown, also called 936.19E6D4) VH: EVKLVESGGGLVQPGGSLKLSCAASGFTFSDYYMYWVRQNAEKRLEWVAYISSGGDAPFYSDNLKGRFTISRDNAKNTLYLQMSRLQPEDTAMYFCAREGFYYYGLYGMDYWGQGTSVTVSS VL: DIVLSQSPATLSVTPGDSVSLSCRASQSIGDNLHWYQQKSHESPRLIIKSASQSISGIPSRFSGSGSGTDFTLSINIVETEDFGMYFCQQSDTWPLTFGPGTKLELK | binding result [1]: no binding; binding result [3]: no binding
8 | 190 | 130 | 100 |  |  |  | ACI-8016-17H1G2-AB1 (antibody, V domains shown, also called 936.17H1G2) VH: EVQLQQSGAELVRPGSSVKMSCKTSGFTFTSYGISWVIQRPEQGLEWIGYIYIRNGYTEYNEKFKGKATLTSDTSSNTAYMQLSNLASEDSAIYFCVRIHRRFFDYWGQGTTLTVSS VL: DIQMTQTTSSLSASLGDRVTISCSASQGISNYLNWFQQKPNGTVRLLIYYTSSLHSGVPSRFSGSGSGTDYSLTISNLEPEDIATYYCQQYDRLPWTFGGGTKLEIK | binding result [1]: no binding
9 |  | 70 |  |  |  |  | ACI-8016-1112B3D7-AB1 (antibody, V domains shown) VH: QVQLQQSGAELVRPGTSVKLSCKASGYTFTSYWMHWVKQRPGQGLEWIGGIDPSDSYTKYNQKFKAKATLTADTSSSTAYMQLSSLTSEDSAIFYCAREEASTVVAHWYFDVWGTGTTVTVSS VL: DIVLTQSPATLSVTPGDSVSLSCRASQSISNNLHWYQQKSHESPRLLIKYTSQSISGIPSRFSGSGSGTDYTLSINSVETEDFGMYFCQQSNNWPYTFGGGTKLEIK | binding result [3]: no binding

The next lines start with the binder.

Row | Binder | EC50 [3] [pM] | EC50 [4] [pM] | EC50 [2] [pM] | Kd [5] [pM] | koff [5] [s⁻¹] | kon [5] [M⁻¹ s⁻¹] | other results
10 | ACI-8016-2602H6F10-AB1 (antibody, V domains shown) VH: QVQLQQSGAELARPGASVKLSCKASGFSFTSYGISWVKQRTGQGLEWIGQIYLRSSNTYYNEKFKDKATLTADKSSSTVYMELRSLTSEDSAVYFCARYYGSSSDYWGQGTTLTVSS VL: DIQMNQSPSSLSASLGDTITINCHASQNINVWLSWYQQKPGNIPKVLIYQASNLQTGVPTRFSGSGSGTGFTLTISRLQPEDIATYYCQQGQRYPWTFGGGTKLEIK | 4520 | 11100 |  |  |  |  | EC50 [1]: 2520 pM; binding result [2]: no binding
11 | hACI-8016-32B6C7-AB1_H6L3 Fab (Fab, V domains shown) VH: QVQLVQSGAEVKKPGSSVKVSCKASGYTFTDQTIHWVRQAPGQGLEWMGYIYPGDGSAMYNEKFQGRVTITADKSTSTAYMELSSLRSEDTAVYYCARPLYSYASYYWFAYWGQGTLVTVSS VL: EIVLTQSPATLSLSPGERATLSCHASQNINVWLSWYQQKPGQAPRLLIYKSSNLHTGIPARFSGSGSGTDFTLTISSLEPEDFAVYYCQQGQSYPLTFGQGTKLEIK |  |  |  | 86 | 7.52e-06 | 87200 | 
12 | hACI-8016-32B6C7-AB1_H8L4 Fab (Fab, V domains shown) VH: QVQLVQSGAEVKKPGSSVKVSCKISGYTFTDQTIHWVRQAPGQGLEWMGYIYPGDASAMYNEKFQGRVTITADKSTSTAYMELSSLRSEDTAVYYCARPLYSYASYYWFAYWGQGTLVTVSS VL: EIVLTQSPATLSLSPGERATLSCHASQNINVYLSWYQQKPGQAPRLLIYKSSNLHTGIPARFSGSGSGTDFTLTISSLEPEDFAVYYCQQGQSYPLTFGQGTKLEIK |  |  |  | 77 | 7.03e-06 | 94000 | 
13 | hACI-8016-32B6C7-AB1_H6L4 Fab (Fab, V domains shown) VH: QVQLVQSGAEVKKPGSSVKVSCKASGYTFTDQTIHWVRQAPGQGLEWMGYIYPGDGSAMYNEKFQGRVTITADKSTSTAYMELSSLRSEDTAVYYCARPLYSYASYYWFAYWGQGTLVTVSS VL: EIVLTQSPATLSLSPGERATLSCHASQNINVYLSWYQQKPGQAPRLLIYKSSNLHTGIPARFSGSGSGTDFTLTISSLEPEDFAVYYCQQGQSYPLTFGQGTKLEIK |  |  |  | 67 | 5.28e-06 | 79200 | 
14 | hACI-8016-32B6C7-AB1_H15L3 Fab (Fab, V domains shown) VH: QVQLVQSGAEVKKPGSSVKVSCKASGYTFTDQTIHWVRQAPGQGLEWMGYIYPGDASAMYNEKFQGRVTITADKSTSTAYMELSSLRSEDTAVYYCARPLYSYASYYWFAYWGQGTLVTVSS VL: EIVLTQSPATLSLSPGERATLSCHASQNINVWLSWYQQKPGQAPRLLIYKSSNLHTGIPARFSGSGSGTDFTLTISSLEPEDFAVYYCQQGQSYPLTFGQGTKLEIK |  |  |  | 52 | 4.82e-06 | 103000 | 
15 | ACI-8016-3E6B11-AB1 (antibody, V domains shown, also called 936.3E6B11) VH: EVQLQQSGAELVRPGSSVKMSCKTSGYTFTNYGITWVKQRPGQGLEWIGYIYVGNGYTEYNEKFKDKAALTSDTSSSTAYMQLTSLTSDDSTIYFCARIAQGRCFDYWGQGTTLSVSS VL: DIVLTQSPASSAVSLGQRATISCRASQSVSTSSYSYMHWYQQKPGQPPKLLIKYASTLESGVPARFSGSGSGTDFTLNIHPVEEEDTATYYCQHSWELPYMFGGGTKLEIK | 150 | 150 | 130 |  |  |  | binding result [1]: no binding
16 | ACI-8016-2A1B12-AB1 (antibody, V domains shown, also called 936.2A1B12) VH: EVQLQQSGAELVRPGSSVKMSCETSGYTFTTYGLTWVKQRPGQGLEWIGYIYVGNGYTEYNEKFKDKATLTSDTSSSIVYMQLSSLTSEDSAIYFCARLGLRRHFDYWGQGTTLTVSS VL: AIQMTQTTSSLSASLGDRVTISCRASQDISNYLHWYQQKPDGTVKLLIFFTSGLRSGVPSRFSGSGSGTDYSLTISNLEQEDIATYFCQQSILLPWTFGGGTKLEIK | 1560 | 170 | 130 |  |  |  | EC50 [1]: 3340 pM
17 | ACI-8016-14G5B8-AB1 (antibody, V domains shown, also called 936.14G5B8) VH: EVQLQESGPELVKPGSSVKISCKASGYTFADHYMNWVKQSHGKSLEWIGDINPNNGGSVYNQKFKGKATLTVDKSSSTAYMELRSLTSEDSAVYFCARRRAHYYDGPYFDYWGQGTTLTVSS VL: DIVMTQSQKFMSTSVGDRVSLTCKASQIVGTAVAWYQQKPGQSPKLLIYSASIRYTGVPDRFTGSGSGTDFTLTISNMQSEDLADYFCQQYSNYPTFGAGTKLELK | 160 | 90 | 170 |  |  |  | binding result [1]: no binding
